Reference: the supplement of paper PMC7877785
± gives the uncertainty stated by the source.

Test: self-splicing fitness, log relative to wild type (ln ratio); higher = more splicing; Tetrahymena group I intron in knt gene, E. coli kanamycin selection, DiMSum; sequences stand for … in CUCUCU…GGAGGGAAAAGUUAUCAGGCAUGCACCUGGUAGCUAGUCUUUAAACCAAUAGAUUGCAUCGGUUUAAAAGGCAAGACCGUCAAAUUGCGGGAAAGGGGUCAACAGCCGUUCAGUACCAAGUCUCAGGGGAAACUUUGAGAUGGCCUUGCAAAGGGUAUGGUAAUAAGCUGACGGACAUGGUCCUAACCACGCAGCCAAGUCCUAAGUCAACAGAUCUUCUGUUGAUAUGGAUGCAGUUCACAGACUAAAUGUCGGUCGGGGAAGAUGUAUUCUUCUCAUAAGAUAUAGUCGGACCUCUCCUUAAUGGGAGCUAGCGGAUGAAGUGAUGCAACACUGGAGCCGCUGGGAACUAAUUUGUAUGCGAAAGUAUAUUGAUUAGUUUUGGAGUACUCGUGGUCG
How it was run: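 The eight P1ex-region nucleotides of an intron in the knt kanamycin-resistance gene on pET-22b(+) were all randomised and the library put into E. coli BL21(DE3). Six replicate transformations were grown overnight at 37°C or 30°C on LB agar with or without 25 μg/mL kanamycin, together with 100 μg/mL carbenicillin, 50 μM IPTG and 0.2% rhamnose. Colonies were pooled and amplicon-sequenced on an Illumina HiSeq 2500. Fitness from DiMSum is the error-weighted combination of wild-type-normalised replicate fold changes, kanamycin over none.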

| Sequence | self-splicing fitness (ln) (30 °C) | self-splicing fitness (ln) (37 °C) |
| --- | --- | --- |
| ACUAAGCAAUAUUACGAAGG | -1.51 ± 0.087 | -0.966 ± 0.12 |
| ACUAAGCAAUAUUACGACAG | -0.663 ± 0.085 | -0.322 ± 0.11 |
| ACUAAGCAAUAUUACGACGC | -0.258 ± 0.11 | -0.0244 ± 0.12 |
| ACUAAGCAAUAUUACGAGAU | -3 ± 0.15 | -2.45 ± 0.2 |
| ACUAAGCAAUAUUACGAGCG | -0.928 ± 0.084 | 0.115 ± 0.14 |
| ACUAAGCAAUAUUACGAGGC | -3.03 ± 0.23 | -2.48 ± 0.25 |
| ACUAAGCAAUAUUACGCAAU | -2.04 ± 0.076 | -1.65 ± 0.086 |
| ACUAAGCAAUAUUACGCACG | -1.68 ± 0.1 | -0.457 ± 0.13 |
| ACUAAGCAAUAUUACGCGCU | -0.324 ± 0.093 | 0.362 ± 0.13 |
| ACUAAGCAAUAUUACGCGGU | -2.65 ± 0.14 | -2.59 ± 0.21 |
| ACUAAGCAAUAUUACGCUAC | -3.94 ± 0.23 | -1.08 ± 0.18 |
| ACUAAGCAAUAUUACGCUAU | -1.88 ± 0.072 | -1.84 ± 0.1 |
| ACUAAGCAAUAUUACGGAAU | -1.97 ± 0.1 | -2.04 ± 0.16 |
| ACUAAGCAAUAUUACGGAUA | -2.38 ± 0.16 | -2.54 ± 0.2 |
| ACUAAGCAAUAUUACGGAUU | -2.79 ± 0.14 | -1.1 ± 0.11 |
| ACUAAGCAAUAUUACGGGCC | -2.88 ± 0.2 | -1.73 ± 0.21 |
| ACUAAGCAAUAUUACGGUGU | -3.49 ± 0.15 | -2.23 ± 0.12 |
| ACUAAGCAAUAUUACGUAAU | -1.14 ± 0.073 | -0.739 ± 0.09 |
| ACUAAGCAAUAUUACGUAUU | -2.09 ± 0.082 | -1.9 ± 0.11 |
| ACUAAGCAAUAUUACGUGCC | -1.22 ± 0.13 | -0.754 ± 0.14 |
| ACUAAGCAAUAUUACGUUAA | -2.77 ± 0.14 | -2.7 ± 0.18 |
| ACUCAGCAAUAUUACGAAGG | -0.983 ± 0.1 | -1.19 ± 0.14 |
| ACUCAGCAAUAUUACGACGG | -0.71 ± 0.072 | 0.0441 ± 0.12 |
| ACUCAGCAAUAUUACGAGUA | -2.23 ± 0.12 | -1.1 ± 0.1 |

| Sequence | self-splicing fitness (ln) (30 °C) | self-splicing fitness (ln) (37 °C) |
| --- | --- | --- |
| ACUCAGCAAUAUUACGAGUG | -1.59 ± 0.081 | -0.296 ± 0.11 |
| ACUCAGCAAUAUUACGCAAG | -1.89 ± 0.11 | -0.159 ± 0.087 |
| ACUCAGCAAUAUUACGCAGA | -3.11 ± 0.2 | -2.55 ± 0.22 |
| ACUCAGCAAUAUUACGCCAU | -3.02 ± 0.17 | -2.28 ± 0.16 |
| ACUCAGCAAUAUUACGCCGA | -3.36 ± 0.39 | -2.3 ± 0.28 |
| ACUCAGCAAUAUUACGCGAU | -3.34 ± 0.16 | -2.18 ± 0.2 |
| ACUCAGCAAUAUUACGCGUU | -1.91 ± 0.055 | -1.18 ± 0.072 |
| ACUCAGCAAUAUUACGGAAA | -1.61 ± 0.14 | -1.5 ± 0.16 |
| ACUCAGCAAUAUUACGGCAU | -0.665 ± 0.063 | -0.293 ± 0.067 |
| ACUCAGCAAUAUUACGGCUC | -0.59 ± 0.09 | -0.761 ± 0.12 |
| ACUCAGCAAUAUUACGGGCG | -0.574 ± 0.044 | 0.27 ± 0.062 |
| ACUCAGCAAUAUUACGGUAU | -1.67 ± 0.057 | -0.522 ± 0.093 |
| ACUCAGCAAUAUUACGUCUC | -1.8 ± 0.072 | -0.51 ± 0.083 |
| ACUCAGCAAUAUUACGUGUA | -1.39 ± 0.1 | -0.266 ± 0.096 |
| ACUCAGCAAUAUUACGUUAA | -2.35 ± 0.13 | -1.41 ± 0.12 |
| ACUCAGCAAUAUUACGUUCA | -1.36 ± 0.085 | -0.842 ± 0.11 |
| ACUCAGCAAUAUUACGUUCC | -2.15 ± 0.22 | -0.606 ± 0.2 |
| ACUCAGCAAUAUUACGUUCG | -0.678 ± 0.086 | -0.331 ± 0.11 |
| ACUCAGCAAUAUUACGUUGA | -2.37 ± 0.15 | -0.607 ± 0.14 |
| ACUGAGCAAUAUUACGAACA | -3.84 ± 0.47 | -2.59 ± 0.48 |
| ACUGAGCAAUAUUACGAAUG | -3.69 ± 0.4 | -1.89 ± 0.22 |
| ACUGAGCAAUAUUACGACAC | -3.62 ± 0.2 | -2.07 ± 0.24 |
| ACUGAGCAAUAUUACGACCG | -1.3 ± 0.17 | -0.981 ± 0.23 |
| ACUGAGCAAUAUUACGACGC | 0.0713 ± 0.15 | 0.648 ± 0.2 |

| Sequence | self-splicing fitness (ln) (30 °C) | self-splicing fitness (ln) (37 °C) |
| --- | --- | --- |
| ACUGAGCAAUAUUACGAGAG | -3.31 ± 0.18 | -3.34 ± 0.32 |
| ACUGAGCAAUAUUACGAGCA | -2.63 ± 0.27 | -1.42 ± 0.19 |
| ACUGAGCAAUAUUACGAGUC | -3.18 ± 0.23 | -3.2 ± 0.28 |
| ACUGAGCAAUAUUACGAUAA | -2.94 ± 0.26 | -2.75 ± 0.32 |
| ACUGAGCAAUAUUACGAUAU | -4.44 ± 0.36 | -2.8 ± 0.2 |
| ACUGAGCAAUAUUACGCACA | -2.37 ± 0.4 | -2.15 ± 0.29 |
| ACUGAGCAAUAUUACGCAGA | -2.38 ± 0.14 | -1.25 ± 0.1 |
| ACUGAGCAAUAUUACGCCAG | -2.93 ± 0.49 | -2.78 ± 0.47 |
| ACUGAGCAAUAUUACGCCCA | -2.64 ± 0.43 | -2.15 ± 0.28 |
| ACUGAGCAAUAUUACGCGAA | -3.01 ± 0.33 | -2.77 ± 0.36 |
| ACUGAGCAAUAUUACGCGAG | -2.27 ± 0.1 | -1.11 ± 0.096 |
| ACUGAGCAAUAUUACGCGCC | -2.73 ± 0.33 | – |
| ACUGAGCAAUAUUACGCUCC | -2.62 ± 0.45 | -1.18 ± 0.27 |
| ACUGAGCAAUAUUACGCUGG | -3.54 ± 0.2 | -1.4 ± 0.2 |
| ACUGAGCAAUAUUACGGAGG | -2.97 ± 0.18 | -2.76 ± 0.25 |
| ACUGAGCAAUAUUACGGCUC | – | -1.73 ± 0.48 |
| ACUGAGCAAUAUUACGGGAG | -3.29 ± 0.2 | -2.74 ± 0.2 |
| ACUGAGCAAUAUUACGGUAA | -2.81 ± 0.27 | -2.8 ± 0.34 |
| ACUGAGCAAUAUUACGGUCC | – | -2.26 ± 0.33 |
| ACUGAGCAAUAUUACGUACU | -2.16 ± 0.19 | -1.42 ± 0.19 |
| ACUGAGCAAUAUUACGUGCC | -2.31 ± 0.23 | – |
| ACUGAGCAAUAUUACGUUCC | -3.65 ± 0.35 | -2.52 ± 0.24 |
| ACUGAGCAAUAUUACGUUCG | -2.2 ± 0.15 | -0.355 ± 0.12 |
| ACUGAGCAAUAUUACGUUGG | -4.04 ± 0.2 | -2.17 ± 0.18 |

| Sequence | self-splicing fitness (ln) (30 °C) | self-splicing fitness (ln) (37 °C) |
| --- | --- | --- |
| ACUGAGCAAUAUUACGUUGU | -3.71 ± 0.26 | -1.53 ± 0.14 |
| ACUGAGCAAUAUUACGUUUA | -2.52 ± 0.2 | -3.08 ± 0.24 |
| ACUUAGCAAUAUUACGAAAA | -2.79 ± 0.26 | -2.01 ± 0.27 |
| ACUUAGCAAUAUUACGACAU | -0.756 ± 0.012 | -0.251 ± 0.032 |
| ACUUAGCAAUAUUACGACGC | -0.152 ± 0.066 | -0.0939 ± 0.072 |
| ACUUAGCAAUAUUACGAGAG | -2.21 ± 0.12 | -0.741 ± 0.11 |
| ACUUAGCAAUAUUACGAUAG | -2.71 ± 0.12 | -1.7 ± 0.16 |
| ACUUAGCAAUAUUACGCAAA | -3.03 ± 0.41 | -1.24 ± 0.25 |
| ACUUAGCAAUAUUACGCACA | -1.26 ± 0.12 | -1.02 ± 0.12 |
| ACUUAGCAAUAUUACGCAGU | -3.83 ± 0.35 | -2.17 ± 0.21 |
| ACUUAGCAAUAUUACGCGAG | -1.93 ± 0.15 | -1.76 ± 0.13 |
| ACUUAGCAAUAUUACGCGGC | -2.71 ± 0.25 | -1.12 ± 0.23 |
| ACUUAGCAAUAUUACGGAGU | -3.58 ± 0.47 | -3.1 ± 0.3 |
| ACUUAGCAAUAUUACGGCGU | -0.204 ± 0.088 | 0.491 ± 0.13 |
| ACUUAGCAAUAUUACGGCUA | -2.6 ± 0.2 | -0.214 ± 0.1 |
| ACUUAGCAAUAUUACGGGUA | -1.14 ± 0.11 | -1.54 ± 0.14 |
| ACUUAGCAAUAUUACGGUAA | -2.66 ± 0.15 | -1.42 ± 0.14 |
| ACUUAGCAAUAUUACGGUGG | -3.72 ± 0.3 | – |
| ACUUAGCAAUAUUACGUAUA | -3.22 ± 0.14 | -2.41 ± 0.16 |
| ACUUAGCAAUAUUACGUAUG | -3.35 ± 0.22 | -2.2 ± 0.16 |
| ACUUAGCAAUAUUACGUCGA | -2.06 ± 0.16 | -1.23 ± 0.16 |
| ACUUAGCAAUAUUACGUGAA | -2.94 ± 0.15 | -1.5 ± 0.12 |
| ACUUAGCAAUAUUACGUGCG | -1.29 ± 0.1 | 0.152 ± 0.15 |
| ACUUAGCAAUAUUACGUUUU | -3.39 ± 0.12 | -1.93 ± 0.1 |
